Results reported in US20210032312A1 (Janssen / Centocor, published 2021).
Residue numbers refer to the chain shown, from its start. Numbers in names are those of the source. Each block holds one binder with its values, some of them ahead of it.

Columns and labels:
[1] = molecular target: T1, human CD8A-Fc (recombinant human CD8 alpha fused to Fc fragment of human IgG1) (human, UniProt P01732 22-182, limits assumed); assay: SPR, dissociation rate on recombinant CD8 alpha
T1 construct: SPR ligand, captured by goat anti-human Fc; also called hCD8A-Fc; recombinant CD8 alpha; not shown: linker with flag (and polyhistidine) tag and Fc fragment of human IgG1; depends on which of the two constructs was used
T1 sequence (P01732 22-182 limits assumed): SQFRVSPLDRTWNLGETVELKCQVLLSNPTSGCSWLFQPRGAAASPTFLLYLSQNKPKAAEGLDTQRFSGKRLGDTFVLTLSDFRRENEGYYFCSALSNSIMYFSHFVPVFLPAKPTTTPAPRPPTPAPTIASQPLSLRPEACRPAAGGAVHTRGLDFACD

human CD8A-Fc (in house) = molecular target: T2, human CD8A-Fc (in house) (human, UniProt P01732 22-182, limits assumed); assay: SPR (ProteOn), captured hCD8A-Fc
T2 construct: captured by goat anti-human Fc on the ProteOn chip; also called hCD8A-Fc; recombinant human CD8 alpha; not shown: linker/tag and Fc of human IgG1
T2 sequence (P01732 22-182 limits assumed): as above

[2] = molecular target: T3, human CD8 alpha (CD8A) on primary human CD8+ T cells (human, UniProt P01732 22-235); assay: flow cytometry, human CD8+ T cells
T3 construct: whole, on cells; also called hCD8A
T3 sequence (P01732 22-235): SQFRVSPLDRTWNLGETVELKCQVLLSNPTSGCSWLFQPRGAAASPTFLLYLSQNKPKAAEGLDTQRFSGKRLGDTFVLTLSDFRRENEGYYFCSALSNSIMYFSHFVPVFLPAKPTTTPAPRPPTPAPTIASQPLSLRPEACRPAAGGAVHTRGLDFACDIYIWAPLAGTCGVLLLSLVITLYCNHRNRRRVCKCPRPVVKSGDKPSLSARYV

[3] = molecular target: T4, cynomolgus monkey CD8 alpha on primary cynomolgus CD8+ T cells (cynomolgus monkey, UniProt P01732 23-235 (human entry)); assay: flow cytometry, cyno CD8+ T cells
T4 construct: also called Cyno CD8alpha; cyno CD8A
T4 sequence (P01732 other isoform, or with tags, fused parts or gaps limits assumed): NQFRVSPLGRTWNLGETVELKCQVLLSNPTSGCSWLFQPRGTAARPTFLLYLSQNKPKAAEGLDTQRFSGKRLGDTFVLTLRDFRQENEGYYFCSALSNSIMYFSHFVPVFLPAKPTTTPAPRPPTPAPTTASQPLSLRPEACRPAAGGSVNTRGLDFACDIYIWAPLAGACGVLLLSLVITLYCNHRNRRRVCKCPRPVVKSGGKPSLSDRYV

koff [1]: 0.000152 s⁻¹
B1: CD8S396 (designed binder)
chain: LPAPKNLVVSRVTEDSARLSWTAPDAAFDSFYITYPEWPDPGGEAIVLTVPGSERSYDLTGLKPGTEYFVVIYGVKGGEIYSPLSAIFTT
notes: W32Y mutant of P282DR9P1359_C5; the entry holds the mutation

koff [1]: 0.0127 s⁻¹
B2: CD8S401 (designed binder)
chain: B1 chain with Y32W, W38I
notes: W38I mutant of P282DR9P1359_C5; the entry holds the mutation

koff [1]: 0.00134 s⁻¹
B3: CD8S399 (designed binder)
chain: B1 chain with Y32W, W38Y
notes: W38Y mutant of P282DR9P1359_C5; the entry holds the mutation

koff [1]: 4.84e-05 s⁻¹
B4: CD8S402 (designed binder)
chain: B1 chain with Y32W, D40P
notes: D40P mutant of P282DR9P1359_C5; the entry holds the mutation

koff [1]: 0.00066 s⁻¹
B5: CD8S397 (designed binder)
chain: B1 chain with Y32Q
notes: W32Q mutant of P282DR9P1359_C5; the entry holds the mutation

koff [1]: 0.0309 s⁻¹
B6: CD8S404 (designed binder)
chain: B1 chain with Y32W, P36A
notes: P36A mutant of P282DR9P1359_C5; the entry holds the mutation

koff [1]: 0.000443 s⁻¹
B7: CD8S398 (designed binder)
chain: B1 chain with Y32S
notes: W32S mutant of P282DR9P1359_C5; the entry holds the mutation

koff [1]: 0.0226 s⁻¹
B8: CD8S400 (designed binder)
chain: B1 chain with Y32W, W38L
notes: W38L mutant of P282DR9P1359_C5; the entry holds the mutation

koff [1]: 0.000194 s⁻¹
B9: CD8S371 (designed binder)
chain: LPAPKNLVVSRVTEDSARLSWTAPDAAFDSFQIAYPEYPPPGEAIVLTVPGSERSYDLTGLKPGTEYFVIIQGVKGGVESWPLSAIFTT
notes: Printed as W48Y mutant of P282DR9P1359_F5; the entry holds the mutation

koff [1]: 0.000133 s⁻¹
B10: CD8S403 (designed binder)
chain: B9 chain with Q32A, P36A, Y38W, P41Q, I70V, Q72Y, V78S, E79Y, W81A
notes: P36A mutant of P282DR9P1359_F7; the entry holds the mutation

koff [1]: 0.000571 s⁻¹
B11: CD8S372 (designed binder)
chain: B9 chain with Y38L
notes: Printed as W48L mutant of P282DR9P1359_F5; the entry holds the mutation

koff [1]: 0.00355 s⁻¹
B12: CD8S394 (designed binder)
chain: B9 chain with Q32A, Y38I, P41Q, I70V, Q72Y, V78S, E79Y, W81A
notes: W38I mutant of P282DR9P1359_F7; the entry holds the mutation

koff [1]: 0.000846 s⁻¹
B13: CD8S376 (designed binder)
chain: B9 chain with Y38W, W81S
notes: W81S mutant of P282DR9P1359_F5; the entry holds the mutation

koff [1]: 0.00403 s⁻¹
B14: CD8S373 (designed binder)
chain: B9 chain with Y38I
notes: Printed as W48I mutant of P282DR9P1359_F5; the entry holds the mutation

koff [1]: 0.00189 s⁻¹
B15: CD8S395 (designed binder)
chain: B9 chain with Q32A, Y38H, P41Q, I70V, Q72Y, V78S, E79Y, W81A
notes: W38H mutant of P282DR9P1359_F7; the entry holds the mutation

koff [1]: 0.000403 s⁻¹
B16: CD8S374 (designed binder)
chain: B9 chain with Y38W, W81Y
notes: W81Y mutant of P282DR9P1359_F5; the entry holds the mutation

koff [1]: 0.00255 s⁻¹
B17: CD8S393 (designed binder)
chain: B9 chain with Q32A, Y38L, P41Q, I70V, Q72Y, V78S, E79Y, W81A
notes: W38L mutant of P282DR9P1359_F7; the entry holds the mutation

koff [1]: 0.0004 s⁻¹
B18: CD8S377 (designed binder)
chain: B9 chain with Y38W, W81E
notes: W81E mutant of P282DR9P1359_F5; the entry holds the mutation

koff [1]: 0.00155 s⁻¹
B19: CD8S392 (designed binder)
chain: B9 chain with Q32A, P41Q, I70V, Q72Y, V78S, E79Y, W81A
notes: W38Y mutant of P282DR9P1359_F7; the entry holds the mutation

koff [1]: 0.00083 s⁻¹
B20: CD8S375 (designed binder)
chain: B9 chain with Y38W, W81L
notes: W81L mutant of P282DR9P1359_F5; the entry holds the mutation

koff [1]: 0.000184 s⁻¹
B21: CD8S389 (designed binder)
chain: LPAPKNLVVSRVTEDSARLSWTAPDAAFDSFGILYYEPVDSGEAITLPVPGSERSYDLTGLKPGTEYFVVITGVKGGAPSTPLGTIFTT
notes: W68F mutant of P282ER9P1360_C8; the entry holds the mutation

koff [1]: 0.00032 s⁻¹
B22: CD8S391 (designed binder)
chain: B21 chain with F68H
notes: W68H mutant of P282ER9P1360_C8; the entry holds the mutation

koff [1]: 0.000152 s⁻¹
B23: CD8S390 (designed binder)
chain: B21 chain with F68Y
notes: W68Y mutant of P282ER9P1360_C8; the entry holds the mutation

koff [1]: 0.00114 s⁻¹
B24: CD8S405 (designed binder)
chain: B21 chain with P48T, F68W
notes: P48T mutant of P282ER9P1360_C8; the entry holds the mutation

koff (human CD8A-Fc (in house)): 0.000288 s⁻¹
Human T-cell Binding 0.2 uM (MFI) [2]: 3270 MFI
Human T-cell Binding 2 uM (MFI) [2]: 14500 MFI
Cyno T-cell Binding 0.2 uM (MFI) [3]: 5280 MFI
Cyno T-cell Binding 2 uM (MFI) [3]: 33300 MFI
B25: P283BR9P1363_F2 (designed binder)
chain: LPAPKNLVVSRVTEDSARLSWYRPDNRAGAFDSFLIQYQESEKVGEAIVLTVPGSERSYDLTGLKPGTEYTVSIYGVDVKYDIDSRPISSNPLSAIFTT
notes: FN3 domain

koff (human CD8A-Fc (in house)): 8.21e-05 s⁻¹
Human T-cell Binding 0.2 uM (MFI) [2]: 3230 MFI
Human T-cell Binding 2 uM (MFI) [2]: 10600 MFI
Cyno T-cell Binding 0.2 uM (MFI) [3]: 4570 MFI
Cyno T-cell Binding 2 uM (MFI) [3]: 31600 MFI
B26: P283BR9P1363_F6 (designed binder)
chain: LPAPKNLVVSRVTEDSARLSWPEEAVTATSFDSFLIQYQESEKVGEAIVLTVPGSERSYDLTGLKPGTEYTVSIYGVDVKWEGNRPVASNPLSAIFTT
notes: FN3 domain

koff (human CD8A-Fc (in house)): 0.00014 s⁻¹
Human T-cell Binding 0.2 uM (MFI) [2]: 3310 MFI
Human T-cell Binding 2 uM (MFI) [2]: 14800 MFI
Cyno T-cell Binding 0.2 uM (MFI) [3]: 4430 MFI
Cyno T-cell Binding 2 uM (MFI) [3]: 24900 MFI
B27: P283BR9P1363_G5 (designed binder)
chain: B26 chain with P22Y, E23R, E24A, A25T, V26T, T27P, T29P, S30H
notes: FN3 domain

koff (human CD8A-Fc (in house)): 0.000155 s⁻¹
Human T-cell Binding 0.2 uM (MFI) [2]: 2960 MFI
Human T-cell Binding 2 uM (MFI) [2]: 11900 MFI
Cyno T-cell Binding 0.2 uM (MFI) [3]: 4480 MFI
Cyno T-cell Binding 2 uM (MFI) [3]: 20200 MFI
B28: P283BR9P1363_F4 (designed binder)
chain: LPAPKNLVVSRVTEDSARLSWERIVQTPHFDSFLIQYQESEKVGEAIVLTVPGSERSYDLTGLKPGTEYTVSIYGVDVKWEGNRPVASNPLSAIFTT
notes: FN3 domain

koff (human CD8A-Fc (in house)): 0.000122 s⁻¹
Human T-cell Binding 0.2 uM (MFI) [2]: 3230 MFI
Human T-cell Binding 2 uM (MFI) [2]: 9640 MFI
Cyno T-cell Binding 0.2 uM (MFI) [3]: 5380 MFI
Cyno T-cell Binding 2 uM (MFI) [3]: 15900 MFI
B29: P283BR9P1363_G2 (designed binder)
chain: B28 chain with E22P, R23K, I24N, V25Q, Q26T, T27N, P28R
notes: FN3 domain

koff [1]: 5.8e-05 s⁻¹
B30: CD8S378 (designed binder)
chain: LPAPKNLVVSRVTEDSARLSWTAPDAAFDSFAITYIEKEHIEEGEAIVLTVPGSERSYDLTGLKPGTEYWVPIWGVKGGANSWPLSAIFTT
notes: D43E mutant of P282DR9P1359_G7; the entry holds the mutation

koff (human CD8A-Fc (in house)): 0.000271 s⁻¹
Human T-cell Binding 0.2 uM (MFI) [2]: 4060 MFI
Human T-cell Binding 2 uM (MFI) [2]: 32800 MFI
Cyno T-cell Binding 0.2 uM (MFI) [3]: 4560 MFI
Cyno T-cell Binding 2 uM (MFI) [3]: 54600 MFI
B31: P283DR9P1364_H9 (designed binder)
chain: B30 chain with A32S, T34S, K38Y, E39P, H40E, E42P, E43G, A80I, N81Q
notes: FN3 domain

koff [1]: 0.00121 s⁻¹
B32: CD8S380 (designed binder)
chain: B30 chain with E43D, W70Y
notes: W70Y mutant of P282DR9P1359_G7; the entry holds the mutation

koff [1]: 0.247 s⁻¹
B33: CD8S382 (designed binder)
chain: B30 chain with E43D, W70S
notes: W70S mutant of P282DR9P1359_G7; the entry holds the mutation

koff [1]: 0.0002 s⁻¹
B34: CD8S381 (designed binder)
chain: B30 chain with E43D, W70F
notes: W70F mutant of P282DR9P1359_G7; the entry holds the mutation

koff [1]: 7.54e-05 s⁻¹
B35: CD8S388 (designed binder)
chain: B30 chain with E43D, N81Q
notes: N81Q mutant of P282DR9P1359_G7; the entry holds the mutation

koff [1]: 0.000747 s⁻¹
B36: CD8S383 (designed binder)
chain: B30 chain with E43D, W74Y
notes: W74Y mutant of P282DR9P1359_G7; the entry holds the mutation

koff [1]: 0.000125 s⁻¹
B37: CD8S387 (designed binder)
chain: B30 chain with E43D, W83E
notes: W83E mutant of P282DR9P1359_G7; the entry holds the mutation

koff [1]: 4.97e-05 s⁻¹
B38: CD8S379 (designed binder)
chain: B30 chain with E43S
notes: D43S mutant of P282DR9P1359_G7; the entry holds the mutation

koff (human CD8A-Fc (in house)): 0.001 s⁻¹
Human T-cell Binding 0.2 uM (MFI) [2]: 1830 MFI
Human T-cell Binding 2 uM (MFI) [2]: 17200 MFI
Cyno T-cell Binding 0.2 uM (MFI) [3]: 3160 MFI
Cyno T-cell Binding 2 uM (MFI) [3]: 33800 MFI
B39: P283DR9P1364_F6 (designed binder)
chain: LPAPKNLVVSRVTEDSARLSWTAPDAAFDSFTIAYPEREQDKWGEAIVLTVPGSERSYDLTGLKPGTEYWVIIQGVKGGRPSTPLSAILTT
notes: FN3 domain

koff (human CD8A-Fc (in house)): 0.00174 s⁻¹
Human T-cell Binding 0.2 uM (MFI) [2]: 458 MFI
Human T-cell Binding 2 uM (MFI) [2]: 6300 MFI
Cyno T-cell Binding 0.2 uM (MFI) [3]: 1300 MFI
Cyno T-cell Binding 2 uM (MFI) [3]: 36700 MFI
B40: P283DR9P1364_F8 (designed binder)
chain: LPAPKNLVVSRVTEDSARLSWTAPDAAFDSFAIAYPEWPPGEAIVLTVPGSERSYDLTGLKPGTEYFVIIYGVKGGWTSPPLSAIFTT
notes: FN3 domain
